Literature values, collected in paper PMC3145095.

Target: CD8αα (Mus musculus) (UniProt P01731)
Chain of UniProt P01731 (P01731 28-196): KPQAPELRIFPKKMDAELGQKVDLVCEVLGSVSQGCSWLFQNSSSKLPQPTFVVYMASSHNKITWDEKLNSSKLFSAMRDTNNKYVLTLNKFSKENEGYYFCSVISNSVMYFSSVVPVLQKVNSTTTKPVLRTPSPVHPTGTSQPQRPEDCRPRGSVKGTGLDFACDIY

In the case of “Thymus leukaemia antigen (TL) (from UniProt P14432)”, the Kd is listed as 12 µM.
